# Measurements: patent US9486491 (dated 2016)
# Non-standard residues stand in square brackets, D forms with d. No end group written: not given here. Hyp = O=C(O)[C@@H]1C[C@@H](O)CN1
# Molecular target: DPP-4 (UniProt P27487)
# Test: other, DPP-4 inhibition
# Chain of DPP-4 (P27487 29-766): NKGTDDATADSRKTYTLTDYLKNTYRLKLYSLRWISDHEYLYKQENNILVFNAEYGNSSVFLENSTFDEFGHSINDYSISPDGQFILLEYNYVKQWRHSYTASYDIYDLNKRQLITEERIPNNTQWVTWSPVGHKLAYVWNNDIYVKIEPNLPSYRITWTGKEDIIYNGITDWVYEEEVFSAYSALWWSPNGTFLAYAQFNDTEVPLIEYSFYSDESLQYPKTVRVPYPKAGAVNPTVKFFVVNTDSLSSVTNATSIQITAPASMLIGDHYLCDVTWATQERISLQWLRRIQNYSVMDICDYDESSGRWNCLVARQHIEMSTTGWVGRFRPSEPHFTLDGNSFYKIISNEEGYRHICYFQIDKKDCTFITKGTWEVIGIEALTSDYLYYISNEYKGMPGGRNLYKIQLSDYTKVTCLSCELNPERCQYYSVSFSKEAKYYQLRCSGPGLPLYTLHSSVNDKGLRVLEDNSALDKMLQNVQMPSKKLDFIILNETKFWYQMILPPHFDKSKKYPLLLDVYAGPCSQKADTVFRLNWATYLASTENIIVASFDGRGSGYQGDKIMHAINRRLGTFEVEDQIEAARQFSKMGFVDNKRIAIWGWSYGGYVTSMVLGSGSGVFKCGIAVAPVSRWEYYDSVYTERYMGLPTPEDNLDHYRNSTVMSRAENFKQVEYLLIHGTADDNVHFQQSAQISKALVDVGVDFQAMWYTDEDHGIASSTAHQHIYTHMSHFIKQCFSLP
row,Binder,IC50
1,GPA [GlyProAla],71 µg/mL
2,GPQ [GlyProGln],93 µg/mL
3,APG [AlaProGly],8 µg/mL
4,GPIGPV [GlyProIleGlyProVal],5 µg/mL
5,GPS [GlyProSer],142 µg/mL
6,Ala-[Hyp]-Gly [AlaHypGly],2450 µg/mL

# Second part, the binder after the results:
row,IC50,Binder
1,150 µg/mL,Ile-[Hyp]-Gly [IleHypGly]
2,390 µg/mL,L[Hyp]GPA [LeuHypGlyProAla]
3,100 µg/mL,GPV [GlyProVal]
4,39 µg/mL,Leu-[Hyp]-Gly [LeuHypGly]
5,14 µg/mL,LPG [LeuProGly]
